Numbering of substitutions follows the chain as printed. Read-outs that look alike come from different tables or passages of the source.
B1: CD47_P01A11_parent (antibody, V domains shown)
VH: QVQLVQSGAEVKKPGSSVKVSCKASGYTFTNYAISWVRQAPGQGLEWMGGISPLFGTANYAQKFQGRVTITADESTSTAYMELSSLRSEDTAVYYCARDGGRSSDVGWYVGAMDVWGQGTLVTVSS
VL: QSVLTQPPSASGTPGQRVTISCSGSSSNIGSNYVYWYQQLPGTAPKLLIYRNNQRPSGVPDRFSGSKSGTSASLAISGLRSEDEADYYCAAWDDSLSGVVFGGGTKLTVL
notes: also called P01A11_wt
B2: CD47_P01A11_75 (antibody, V domains shown)
VH: B1 VH with T30S, N31S, L54I, G100A, M113I
VL: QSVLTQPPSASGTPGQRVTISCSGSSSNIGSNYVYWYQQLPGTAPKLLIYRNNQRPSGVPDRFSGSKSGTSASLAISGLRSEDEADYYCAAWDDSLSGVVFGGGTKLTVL
notes: Monospecific antibody; also called anti-CD47 antibody P01A11_75
B3: CD47_P01A11_497 (antibody, V domains shown)
VH: B1 VH with Y27G, N31S, L54I, G100A, M113L
VL: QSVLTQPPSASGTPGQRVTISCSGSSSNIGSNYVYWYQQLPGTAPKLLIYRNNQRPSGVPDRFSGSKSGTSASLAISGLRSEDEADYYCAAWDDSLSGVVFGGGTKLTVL
notes: Monospecific antibody

How the values were obtained:
cynomolgus CD47 protein [1] = target: T1, cynomolgus CD47 protein (cynomolgus monkey, UniProt A0A2K5X523 19-139); test: KD; method not stated
T1 construct: also called cyCD47; Cyno CD47

cynomolgus CD47 protein [2] = target: T1, cynomolgus CD47 protein; test: KD; method not stated; remark: listed apart in the source
cynomolgus CD47 protein [3] = target: T1, cynomolgus CD47 protein; test: half-life of the complex; method not stated
mouse CD47 protein = target: T2, mouse CD47 protein (mouse, UniProt Q61735 19-140, limits assumed); test: column 'Cross-react with mouse'; method not stated
T2 sequence (looked up): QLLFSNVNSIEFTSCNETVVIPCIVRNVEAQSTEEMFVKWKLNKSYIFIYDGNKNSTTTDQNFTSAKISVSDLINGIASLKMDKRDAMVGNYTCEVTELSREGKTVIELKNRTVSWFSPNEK

human CD47 protein [4] = target: T3, human CD47 protein (human, UniProt Q08722 19-139, limits assumed); test: KD; method not stated
T3 construct: Soluble protein used for the KD measurements; construct not described; also called hCD47; CD47 (human)

cynomolgus CD47 protein [5] = target: T1, cynomolgus CD47 protein; test: KD; method not stated; remark: listed apart in the source
human CD47 protein [6] = target: T3, human CD47 protein; test: half-life of the complex; method not stated
cynomolgus CD47 protein [7] = target: T1, cynomolgus CD47 protein; test: half-life of the complex; method not stated; remark: listed apart in the source
[8] = target: T4, human CD47 on the cell surface (human); test: flow cytometry, CHO cells stably overexpressing human CD47; positive control
T4 construct: whole, on cells; also called CHO-hCD47; CD47 on HT1080 tumor cells

T3 sequence (Q08722 19-139 limits assumed): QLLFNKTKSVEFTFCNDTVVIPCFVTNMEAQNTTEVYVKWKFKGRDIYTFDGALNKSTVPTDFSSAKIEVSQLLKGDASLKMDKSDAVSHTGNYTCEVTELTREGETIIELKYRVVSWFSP

Binder | Kd (cynomolgus CD47 protein [1]) [nM] | Kd (cynomolgus CD47 protein [2]) [nM] | T1/2 (cynomolgus CD47 protein [3]) [s] | Kd (mouse CD47 protein) [nM] | Kd (human CD47 protein [4]) [nM] | Kd (cynomolgus CD47 protein [5]) [nM] | T1/2 (human CD47 protein [6]) [s] | T1/2 (cynomolgus CD47 protein [7]) [s] | EC50 [8] [nM]
B1 | 1.02 | 1.3 | 1270 | > 6800 |  |  |  |  | 
B2 |  |  |  |  | 75 | 105 | 29.4 | 28.8 | 0.98
B3 |  |  |  |  | 497 | 704 |  |  | 
